B1: recombinant single-chain variable fragment of the PL-2 antibody (scFv, V domains shown)
VH: DVQLKQSGPGLVQPSQSLSITCTVSGFSLIDYGVHWVRQSPGKGLEWLGVIWTGGSTDYNAAFISRLTISKDNSKSQVFFKMNSLQANDTGIYYCGRPYYGNVMDYWGQGTSVTVSS
VL: DIQMTQTTSSLSASLGDRVTISCRASQDISNYLNWYQQKPDGTVKLLIYYTSRLHSGVPSRFSGSGSGTDYSLTISNLEQEDIATYFCQQGNTFPPTFGGGTKLEIK
B2: monoclonal antibody PL-2 (antibody, V domains shown)
VH: B1 VH
VL: B1 VL

Columns and labels:
[1] = molecular target: T1, recombinant HAstV-2 capsid protein (Human astrovirus 2 (HAstV-2), entry …, UniProt Q82446, strain); experiment: pull-down
[2] = molecular target: T1, recombinant HAstV-2 capsid protein; experiment: ELISA

Binder | binding result [1] | binding result [2]
B1 | binds | –
B2 | – | binds

Source: publication PMC4869151 (ACS Infectious Diseases, 2016)
